Test results as given in US20250235548A1 (Zymeworks, published 2025).
Read-outs that look alike come from different tables or passages of the source.

Legend:
[1] = target: T1, KLH (Sigma-Aldrich, H8283); experiment: NS-ELISA, plate coated with KLH, mAb at 100 nM; ratio of signal to a buffer well
T1 construct: Coating protein of the non-specific ELISA (NS-ELISA)
Method: NS-ELISA was used to measure the propensity of the antibodies to bind to a range of biomolecules to emulate the undesirable non-specific interactions to biological matrices in vivo as described below.
NS-ELISA was carried out in Corning@ 96-well EIA/RIA Easy Wash™ Clear Flat Bottom Polystyrene High Bind Microplate coated overnight at 4° C. with 50 μL of Heparin (Sigma, H3149) diluted with 50 mM sodium carbonate pH 9.6 to a final concentration of 250 μg/mL. The plate was incubated for 2 days at room temperature, wells that were coated with heparin were not covered to allow air dry. […] 50 μL each of insulin, KLH, dsDNA and ssDNA were added to a 96 well plate, followed by the incubation at 37° C. for 2 h. The coating materials were removed, and the plate was blocked with 200 μL of Gibco™ PBS pH7.4, 0.1% Tween®20, and incubated for 1 h at room temperature with shaking at 200 rpm. The plate was washed 3 times with Gibco™ PBS pH7.4, 0.1% Tween 20. 50 μL of each mAb at 100 nM (15 mg/mL) in Gibco™ PBS pH 7.4, 0.1% Tween®20 was added in duplicate to the wells and incubated for 1 h at room temperature with shaking at 200 rpm. […] Plates were incubated for 1 h at room temperature, with shaking at 200 rpm. The plate was washed three times with Gibco™ PBS pH7.4, 0.1% Tween 20, and 100 μL of TMB substrate (Cell Signaling Technology©, 7004P6) added to each well. […] Binding scores were calculated as the ratio of the ELISA signal of the antibody to the signal of a well containing buffer instead of the primary antibody. The cutoffs considered for each binding molecule (ssDNA. KLH, Insulin, dsDNA and Heparin) were internally calculated, based on the average of Zymeworks Inc. produced antibodies and antibodies benchmarks published in the literature.

[2] = target: T2, human sodium-dependent phosphate transporter 2B (NaPi2b) (human, UniProt O95436 1-690); experiment: cell-based or functional assay
T2 sequence: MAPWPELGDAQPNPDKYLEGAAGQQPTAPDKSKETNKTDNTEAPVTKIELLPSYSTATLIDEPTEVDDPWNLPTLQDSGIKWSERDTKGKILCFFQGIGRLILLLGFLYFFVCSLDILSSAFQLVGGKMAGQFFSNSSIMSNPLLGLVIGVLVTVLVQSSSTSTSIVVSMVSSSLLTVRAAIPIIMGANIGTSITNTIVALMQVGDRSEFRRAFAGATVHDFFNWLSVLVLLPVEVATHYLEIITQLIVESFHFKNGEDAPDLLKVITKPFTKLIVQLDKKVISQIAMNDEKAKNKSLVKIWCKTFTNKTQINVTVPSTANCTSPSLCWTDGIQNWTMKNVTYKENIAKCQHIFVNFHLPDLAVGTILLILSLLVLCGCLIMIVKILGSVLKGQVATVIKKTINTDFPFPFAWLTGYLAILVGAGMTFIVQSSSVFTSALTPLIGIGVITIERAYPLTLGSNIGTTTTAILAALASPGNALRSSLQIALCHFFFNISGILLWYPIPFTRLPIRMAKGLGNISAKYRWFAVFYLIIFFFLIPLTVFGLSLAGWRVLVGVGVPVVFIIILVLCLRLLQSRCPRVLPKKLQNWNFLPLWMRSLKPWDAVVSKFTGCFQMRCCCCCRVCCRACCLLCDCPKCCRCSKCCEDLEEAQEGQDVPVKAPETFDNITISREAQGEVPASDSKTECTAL

[3] = target: T2, human sodium-dependent phosphate …; experiment: cell-based or functional assay; remark: listed apart in the source
[4] = target: T2, human sodium-dependent phosphate …; experiment: cell-based or functional assay; remark: listed apart in the source
[5] = target: T2, human sodium-dependent phosphate …; experiment: cell-based or functional assay; remark: listed apart in the source
[6] = target: T2, human sodium-dependent phosphate …; experiment: cell-based or functional assay; remark: listed apart in the source
[7] = target: T3, human sodium-dependent phosphate transporter 2B (NaPi2b) (human, UniProt O95436 1-690); experiment: KinExA, IGROV-1 cells, monovalent format
T3 construct: also called hNaPi2b; Hu NaPi2b
T3 sequence: T2 sequence
Method: The cell-binding assay was set up using the antibody constructs or variants as constant binding partner at two different concentrations of 50 μM and 500 μM. For the titration curve with antibody variants fixed at 50 μM, at least 10 million IGROV-1 cells were used as titrant. For the titration curve with antibody variants fixed at 500 μM, at least 5 million cells were used as titrant. The antibody variants and cells were mixed in PBS pH 7.4, 1 mg/mL BSA, 0.2% NaN₃ and incubated at 4° C. for 7 days with gentle rotation until equilibrium was reached. After incubation, the mixture of antibody variants and cells was centrifuged to separate the cells from the unbound free antibody variants.
N-curve analysis was used to calculate the affinity and receptor expression level with the concentrations of antibody variant as reference point.

cynomolgus monkey NaPi2b = target: T4, cynomolgus monkey NaPi2b (cynomolgus monkey, UniProt O95436 1-690 (human entry)); experiment: flow cytometry, HEK293-6e cells transfected with cynomolgus NaPi2b
T4 construct: also called Cyno NaPi2b; Cy NaPi2b
T4 chain: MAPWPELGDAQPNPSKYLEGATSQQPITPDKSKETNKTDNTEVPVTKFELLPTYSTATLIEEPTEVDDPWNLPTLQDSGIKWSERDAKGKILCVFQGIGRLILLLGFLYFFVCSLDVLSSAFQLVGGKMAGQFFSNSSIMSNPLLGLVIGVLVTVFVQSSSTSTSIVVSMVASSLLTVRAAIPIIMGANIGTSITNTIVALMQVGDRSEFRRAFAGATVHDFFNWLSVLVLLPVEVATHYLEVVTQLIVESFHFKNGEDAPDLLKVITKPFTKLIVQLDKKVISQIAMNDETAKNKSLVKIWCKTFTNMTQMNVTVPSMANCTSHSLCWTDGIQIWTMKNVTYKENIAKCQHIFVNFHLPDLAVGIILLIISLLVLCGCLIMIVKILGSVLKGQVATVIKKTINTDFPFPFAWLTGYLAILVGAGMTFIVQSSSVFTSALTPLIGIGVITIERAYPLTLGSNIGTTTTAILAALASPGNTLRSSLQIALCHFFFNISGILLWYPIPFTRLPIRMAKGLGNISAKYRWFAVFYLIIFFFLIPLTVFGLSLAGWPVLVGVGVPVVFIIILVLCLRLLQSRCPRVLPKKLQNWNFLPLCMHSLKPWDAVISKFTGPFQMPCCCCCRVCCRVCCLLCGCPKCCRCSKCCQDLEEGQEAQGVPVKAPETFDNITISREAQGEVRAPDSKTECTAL

[8] = target: T3, human sodium-dependent phosphate …; experiment: cell-based or functional assay; remark: listed apart in the source

B1: v23855, parental mouse-human chimeric anti-NaPi2b antibody (antibody, human IgG1, kappa, V domains shown)
VH: QAYLQQSGAELVRPGASVKMSCKASGFTFTSYNVHWVKQTPRQGLEWIAAISPGNGDLSYNQRFKDKATLTVDRSSSTAYMQLSGLTSEDSAVYFCARGRTGMGAVDYWGQGTSVTVSS
VL: DVQMTQTASSLSASLGDRVTISCRASQDVYSYLNWYQQKPHGTVKLLIYYTSRLQSGVPSRFTGSGSGTDYSLTISNLEPEDIATYYCQQYNIFPWTFGGGTKLEIKR
notes: Full-size antibody; also called parental chimeric
- NS-ELISA binding score [1]: 2.38

B2: v18993 (lifastuzumab)-MCvcPABC-MMAE DAR 4 (antibody, human IgG1, kappa)
heavy 1: GEVQLVESGGGLVQPGGSLRLSCAASGFSFSDFAMSWVRQAPGKGLEWVATIGRVAFHTYYPDSMKGRFTISRDNSKNTLYLQMNSLRAEDTAVYYCARHRGFDVGHFDFWGQGTLVTVSSASTKGPSVFPLAPSSKSTSGGTAALGCLVKDYFPEPVTVSWNSGALTSGVHTFPAVLQSSGLYSLSSVVTVPSSSLGTQTYICNVNHKPSNTKVDKKVEPKSCDKTHTCPPCPAPELLGGPSVFLFPPKPKDTLMISRTPEVTCVVVDVSHEDPEVKFNWYVDGVEVHNAKTKPREEQYNSTYRVVSVLTVLHQDWLNGKEYKCKVSNKALPAPIEKTISKAKGQPREPQVYVYPPSRDELTKNQVSLTCLVKGFYPSDIAVEWESNGQPENNYKTTPPVLDSDGSFALVSKLTVDKSRWQQGNVFSCSVMHEALHNHYTQKSLSLSPG
heavy 2: not shown
light: GDIQMTQSPSSLSASVGDRVTITCRSSETLVHSSGNTYLEWYQQKPGKAPKLLIYRVSNRFSGVPSRFSGSGSGTDFTLTISSLQPEDFATYYCFQGSFNPLTFGQGTKVEIKRTVAAPSVFIFPPSDEQLKSGTASVVCLLNNFYPREAKVQWKVDNALQSGNSQESVTEQDSKDSTYSLSSTLTLSKADYEKHKVYACEVTHQGLSSPVTKSFNRGEC
modifications: MCvcPABC-MMAE drug-linker; DAR 4 for the whole antibody; attachment residues not stated
- EC50 of cytotoxicity, H441 3D spheroids [2]: 11.7 nM
- EC50 of cytotoxicity, IGROV-1 3D spheroids [2]: 0.69 nM
- EC50 of cytotoxicity, TOV-21G 3D spheroids [2]: 25.5 nM

B3: v29456-MT-GGFG-AM-Compound 139 DAR 8 (antibody, human IgG1, kappa)
heavy: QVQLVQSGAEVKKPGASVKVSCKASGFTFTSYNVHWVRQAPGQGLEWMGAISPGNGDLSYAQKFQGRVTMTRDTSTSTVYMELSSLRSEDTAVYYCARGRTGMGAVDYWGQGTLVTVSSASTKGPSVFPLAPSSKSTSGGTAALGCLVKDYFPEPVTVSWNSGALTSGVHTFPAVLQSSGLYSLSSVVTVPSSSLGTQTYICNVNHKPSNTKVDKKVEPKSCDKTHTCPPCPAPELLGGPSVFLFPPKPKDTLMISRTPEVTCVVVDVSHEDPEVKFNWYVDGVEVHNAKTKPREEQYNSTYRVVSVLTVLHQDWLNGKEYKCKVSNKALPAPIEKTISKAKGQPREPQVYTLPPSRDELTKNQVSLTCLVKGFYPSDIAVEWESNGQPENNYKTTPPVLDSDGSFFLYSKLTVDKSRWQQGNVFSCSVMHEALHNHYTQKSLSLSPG
light: DVQMTQSPSSLSASVGDRVTITCRASQDVYSYLNWYQQKPGKAVKLLIYYTSRLQSGVPSRFSGSGSGTDYTLTISSLQPEDFATYYCQQYNIFPWTFGQGTKLEIKRTVAAPSVFIFPPSDEQLKSGTASVVCLLNNFYPREAKVQWKVDNALQSGNSQESVTEQDSKDSTYSLSSTLTLSKADYEKHKVYACEVTHQGLSSPVTKSFNRGEC
modifications: MT-GGFG-AM-Compound 139 drug-linker on reduced cysteines (maleimide); DAR 8 for the whole antibody
- EC50 of cytotoxicity, 2D monolayer, HCC-78 cells, 4 days, CellTiter-Glo [3]: 0.65 nM
- EC50 of cytotoxicity, 2D monolayer, IGROV-1 cells, 4 days, CellTiter-Glo [3]: 1.71 nM
- EC50 of cytotoxicity, HCC-78 3D spheroids, 6 days, CellTiter-Glo 3D [4]: 0.82 nM
- EC50 of cytotoxicity, IGROV-1 3D spheroids, 6 days, CellTiter-Glo 3D [4]: 0.37 nM

B4: v29456-MT-GGFG-Compound 140 DAR 8 (antibody, human IgG1, kappa)
heavy: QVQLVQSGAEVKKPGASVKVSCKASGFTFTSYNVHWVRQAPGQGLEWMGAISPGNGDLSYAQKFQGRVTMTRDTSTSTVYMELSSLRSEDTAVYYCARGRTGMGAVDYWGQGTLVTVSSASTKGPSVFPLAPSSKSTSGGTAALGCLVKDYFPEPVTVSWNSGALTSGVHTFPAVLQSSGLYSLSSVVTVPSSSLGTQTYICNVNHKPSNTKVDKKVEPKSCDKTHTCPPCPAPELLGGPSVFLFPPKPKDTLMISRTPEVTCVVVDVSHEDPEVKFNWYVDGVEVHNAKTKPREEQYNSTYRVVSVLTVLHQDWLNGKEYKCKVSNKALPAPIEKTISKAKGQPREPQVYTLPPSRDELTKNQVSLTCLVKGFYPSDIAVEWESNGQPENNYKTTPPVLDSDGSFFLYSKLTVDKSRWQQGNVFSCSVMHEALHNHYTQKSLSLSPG
light: B3 light
modifications: MT-GGFG-Compound 140 drug-linker on reduced cysteines (maleimide); DAR 8 for the whole antibody
- EC50 of cytotoxicity, 2D monolayer, HCC-78 cells, 4 days, CellTiter-Glo [3]: 0.6 nM
- EC50 of cytotoxicity, HCC-78 3D spheroids, 6 days, CellTiter-Glo 3D [4]: 0.19 nM
- EC50 of cytotoxicity, IGROV-1 3D spheroids, 6 days, CellTiter-Glo 3D [4]: 0.25 nM

B5: v29456-MC-GGFG-AM-DXd1 DAR 8 (antibody, human IgG1, kappa)
heavy: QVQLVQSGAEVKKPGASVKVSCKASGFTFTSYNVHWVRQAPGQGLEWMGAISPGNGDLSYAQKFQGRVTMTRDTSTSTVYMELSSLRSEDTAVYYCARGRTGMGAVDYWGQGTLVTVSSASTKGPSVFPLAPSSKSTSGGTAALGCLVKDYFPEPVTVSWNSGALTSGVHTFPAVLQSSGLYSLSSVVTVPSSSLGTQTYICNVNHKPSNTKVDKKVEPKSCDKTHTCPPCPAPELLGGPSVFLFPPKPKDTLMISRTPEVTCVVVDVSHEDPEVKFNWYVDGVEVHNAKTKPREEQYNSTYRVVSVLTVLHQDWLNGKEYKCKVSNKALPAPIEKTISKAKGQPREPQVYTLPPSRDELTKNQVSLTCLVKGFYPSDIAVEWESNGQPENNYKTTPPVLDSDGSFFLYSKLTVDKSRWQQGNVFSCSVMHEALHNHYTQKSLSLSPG
light: B3 light
modifications: MC-GGFG-AM-DXd1 drug-linker on reduced cysteines (maleimide); DAR 8 for the whole antibody
- EC50 of cytotoxicity, 2D monolayer, HCC-78 cells, 4 days, CellTiter-Glo (row printed as v29456-MT-GGFG-AM-DXd1) [3]: 0.55 nM
- EC50 of cytotoxicity, 2D monolayer, IGROV-1 cells, 4 days, CellTiter-Glo (row printed as v29456-MT-GGFG-AM-DXd1) [3]: 0.45 nM
- EC50 of cytotoxicity, HCC-78 3D spheroids, 6 days, CellTiter-Glo 3D [4]: 0.6 nM
- EC50 of cytotoxicity, IGROV-1 3D spheroids, 6 days, CellTiter-Glo 3D [4]: 0.27 nM

B6: v29456-MC-GGFG-AM-Compound 139 DAR 8 (antibody, human IgG1, kappa)
heavy: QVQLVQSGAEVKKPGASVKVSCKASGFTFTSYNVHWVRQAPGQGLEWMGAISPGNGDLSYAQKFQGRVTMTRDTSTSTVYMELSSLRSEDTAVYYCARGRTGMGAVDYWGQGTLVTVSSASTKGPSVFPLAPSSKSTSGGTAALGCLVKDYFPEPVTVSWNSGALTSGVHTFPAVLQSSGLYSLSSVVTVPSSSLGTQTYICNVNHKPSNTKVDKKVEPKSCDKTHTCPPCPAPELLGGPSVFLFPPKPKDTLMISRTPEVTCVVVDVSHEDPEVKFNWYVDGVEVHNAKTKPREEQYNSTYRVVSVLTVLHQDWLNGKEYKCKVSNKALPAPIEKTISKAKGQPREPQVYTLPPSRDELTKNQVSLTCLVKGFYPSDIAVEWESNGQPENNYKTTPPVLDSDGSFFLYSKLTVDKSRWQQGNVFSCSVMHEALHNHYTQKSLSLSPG
light: B3 light
modifications: MC-GGFG-AM-Compound 139 drug-linker on reduced cysteines (maleimide); DAR 8 for the whole antibody
- EC50 of cytotoxicity, 2D monolayer, IGROV-1 cells [5]: 0.39 nM
- EC50 of cytotoxicity, 2D monolayer, TOV-21G cells [5]: 4.3 nM
- EC50 of cytotoxicity, IGROV-1 3D spheroids [6]: 0.31 nM
- EC50 of cytotoxicity, TOV-21G:HDFa (1:1) 3D spheroids [6]: 0.24 nM
- EC50 of cytotoxicity, H441 3D spheroids [2]: 1.57 nM
- EC50 of cytotoxicity, IGROV-1 3D spheroids [2]: 0.55 nM
- EC50 of cytotoxicity, TOV-21G 3D spheroids [2]: 0.54 nM

B7: v29456-MC-GGFG-Compound 141 DAR 8 (antibody, human IgG1, kappa)
heavy: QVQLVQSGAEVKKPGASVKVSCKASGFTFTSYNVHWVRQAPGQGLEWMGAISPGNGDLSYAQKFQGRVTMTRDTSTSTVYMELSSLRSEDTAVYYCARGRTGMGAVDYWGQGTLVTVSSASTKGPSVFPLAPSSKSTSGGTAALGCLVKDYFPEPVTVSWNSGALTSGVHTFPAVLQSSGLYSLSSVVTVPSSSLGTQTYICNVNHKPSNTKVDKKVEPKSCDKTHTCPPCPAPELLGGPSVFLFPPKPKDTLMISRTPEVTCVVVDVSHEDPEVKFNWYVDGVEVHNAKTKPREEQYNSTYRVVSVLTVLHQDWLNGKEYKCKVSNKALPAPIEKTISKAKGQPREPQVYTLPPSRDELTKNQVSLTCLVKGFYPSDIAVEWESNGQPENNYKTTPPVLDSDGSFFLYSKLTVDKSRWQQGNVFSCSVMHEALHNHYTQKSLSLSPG
light: B3 light
modifications: MC-GGFG-Compound 141 drug-linker on reduced cysteines (maleimide); DAR 8 for the whole antibody
- EC50 of cytotoxicity, 2D monolayer, IGROV-1 cells [5]: 3.01 nM
- EC50 of cytotoxicity, 2D monolayer, TOV-21G cells [5]: 0.93 nM
- EC50 of cytotoxicity, IGROV-1 3D spheroids [6]: 0.44 nM
- EC50 of cytotoxicity, TOV-21G:HDFa (1:1) 3D spheroids [6]: 0.9 nM

B8: v29456-MC-GGFG-Compound 141 DAR 4 (antibody, human IgG1, kappa)
heavy: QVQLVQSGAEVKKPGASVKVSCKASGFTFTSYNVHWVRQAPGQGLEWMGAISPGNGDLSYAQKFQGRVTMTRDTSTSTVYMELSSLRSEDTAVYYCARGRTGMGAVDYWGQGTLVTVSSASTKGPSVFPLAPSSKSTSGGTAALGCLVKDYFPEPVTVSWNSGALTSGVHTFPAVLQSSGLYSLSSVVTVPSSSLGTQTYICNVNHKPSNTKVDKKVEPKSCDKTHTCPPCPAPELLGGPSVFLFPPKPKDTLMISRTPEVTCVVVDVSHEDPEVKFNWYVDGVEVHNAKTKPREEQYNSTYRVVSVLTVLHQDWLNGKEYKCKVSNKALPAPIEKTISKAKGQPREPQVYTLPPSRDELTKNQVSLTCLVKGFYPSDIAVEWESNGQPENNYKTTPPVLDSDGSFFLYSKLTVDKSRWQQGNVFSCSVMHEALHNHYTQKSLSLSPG
light: B3 light
modifications: MC-GGFG-Compound 141 drug-linker on reduced cysteines (maleimide); target DAR 4, printed DAR 3.4, for the whole antibody
- EC50 of cytotoxicity, 2D monolayer, IGROV-1 cells [5]: 16.4 nM
- EC50 of cytotoxicity, IGROV-1 3D spheroids [6]: 1.31 nM
- EC50 of cytotoxicity, TOV-21G:HDFa (1:1) 3D spheroids [6]: 0.99 nM

B9: v29456-MC-GGFG-AM-Compound 139 DAR 4 (antibody, human IgG1, kappa)
heavy: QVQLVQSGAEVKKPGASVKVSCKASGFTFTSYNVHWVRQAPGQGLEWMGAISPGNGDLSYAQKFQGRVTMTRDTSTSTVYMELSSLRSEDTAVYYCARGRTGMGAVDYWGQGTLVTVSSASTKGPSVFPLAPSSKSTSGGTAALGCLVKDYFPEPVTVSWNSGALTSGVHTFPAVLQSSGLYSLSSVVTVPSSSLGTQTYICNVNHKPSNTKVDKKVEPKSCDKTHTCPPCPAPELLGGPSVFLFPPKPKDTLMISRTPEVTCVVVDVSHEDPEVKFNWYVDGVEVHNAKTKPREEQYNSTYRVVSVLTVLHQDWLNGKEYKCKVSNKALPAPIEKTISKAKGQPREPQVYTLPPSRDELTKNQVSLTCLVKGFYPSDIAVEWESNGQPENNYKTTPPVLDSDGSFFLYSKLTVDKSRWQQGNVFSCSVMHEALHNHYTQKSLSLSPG
light: B3 light
modifications: MC-GGFG-AM-Compound 139 drug-linker on reduced cysteines (maleimide); target DAR 4, printed DAR 3.4, for the whole antibody
- EC50 of cytotoxicity, 2D monolayer, IGROV-1 cells [5]: 5.46 nM
- EC50 of cytotoxicity, IGROV-1 3D spheroids [6]: 0.88 nM
- EC50 of cytotoxicity, TOV-21G:HDFa (1:1) 3D spheroids [6]: 0.76 nM

B10: v29456-MT-GGFG-AM-Compound 141 DAR 8 (antibody, human IgG1, kappa)
heavy: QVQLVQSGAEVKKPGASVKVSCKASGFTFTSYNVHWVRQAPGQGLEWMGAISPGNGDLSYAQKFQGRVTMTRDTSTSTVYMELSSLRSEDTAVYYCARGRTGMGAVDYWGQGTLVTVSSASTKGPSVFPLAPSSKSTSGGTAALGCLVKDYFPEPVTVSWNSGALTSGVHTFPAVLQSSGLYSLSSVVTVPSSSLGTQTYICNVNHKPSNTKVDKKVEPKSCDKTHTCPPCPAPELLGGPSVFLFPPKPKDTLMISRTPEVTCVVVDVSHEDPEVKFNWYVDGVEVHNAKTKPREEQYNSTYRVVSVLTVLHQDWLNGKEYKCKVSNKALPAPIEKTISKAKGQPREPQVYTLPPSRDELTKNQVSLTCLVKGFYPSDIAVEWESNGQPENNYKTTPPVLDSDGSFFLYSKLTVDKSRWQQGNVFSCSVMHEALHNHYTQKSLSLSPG
light: B3 light
modifications: MT-GGFG-AM-Compound 141 drug-linker on reduced cysteines (maleimide); DAR 8 for the whole antibody
- EC50 of cytotoxicity, 2D monolayer, HCC-78 cells, 4 days, CellTiter-Glo [3]: 0.26 nM
- EC50 of cytotoxicity, 2D monolayer, IGROV-1 cells, 4 days, CellTiter-Glo [3]: 1.56 nM
- EC50 of cytotoxicity, HCC-78 3D spheroids, 6 days, CellTiter-Glo 3D [4]: 0.33 nM
- EC50 of cytotoxicity, IGROV-1 3D spheroids, 6 days, CellTiter-Glo 3D [4]: 0.21 nM

B11: v29452 humanized anti-NaPi2b antibody (antibody, human IgG1, kappa, V domains shown)
VH: QVQLVQSGAEVKKPGASVKVSCKASGFTFTSYNVHWVRQAPGQGLEWMGAISPGNGDLSYAQKFQGRVTMTRDTSTSTVYMELSSLRSEDTAVYYCARGRTGMGAVDYWGQGTLVTVSS
VL: DVQMTQSPSSLSASVGDRVTITCRASQDVYSYLNWYQQKPGKAVKLLIYYTSRLQSGVPSRFSGSGSGTDYTLTISSLQPEDIATYYCQQYNIFPWTFGQGTKLEIKR
notes: Full-size IgG1/kappa; also called H1L3
- NS-ELISA binding score [1]: 1.34

B12: v36123, monovalent format of humanized antibody variant 29452 (antibody, V domains shown)
VH: B11 VH
VL: DVQMTQSPSSLSASVGDRVTITCRASQDVYSYLNWYQQKPGKAVKLLIYYTSRLQSGVPSRFSGSGSGTDYTLTISSLQPEDIATYYCQQYNIFPWTFGQGTKLEIK
notes: also called VH1/VL3
- fold lower binding affinity than chimeric parental antibody construct [7]: ~2 fold

B13: v29456 humanized anti-NaPi2b antibody (antibody, human IgG1, kappa)
heavy: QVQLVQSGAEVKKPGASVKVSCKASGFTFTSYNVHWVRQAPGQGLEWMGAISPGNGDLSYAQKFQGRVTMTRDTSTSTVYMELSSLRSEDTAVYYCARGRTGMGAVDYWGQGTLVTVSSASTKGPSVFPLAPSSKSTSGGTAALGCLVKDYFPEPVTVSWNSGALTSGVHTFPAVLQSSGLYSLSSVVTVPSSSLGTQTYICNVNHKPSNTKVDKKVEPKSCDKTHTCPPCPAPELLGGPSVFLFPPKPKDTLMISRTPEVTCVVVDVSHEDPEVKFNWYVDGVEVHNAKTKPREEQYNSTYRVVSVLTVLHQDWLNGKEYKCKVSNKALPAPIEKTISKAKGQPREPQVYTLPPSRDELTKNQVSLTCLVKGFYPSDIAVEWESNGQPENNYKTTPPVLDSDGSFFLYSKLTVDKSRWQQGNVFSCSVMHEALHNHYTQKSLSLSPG
light: B3 light
notes: Full-size IgG1/kappa; also called H1L2
- fold lower apparent Kd than v18992 (MX35) (cynomolgus monkey NaPi2b): 10 fold
- fold lower apparent Kd than v18993 (lifastuzumab) (cynomolgus monkey NaPi2b): 2 fold
- NS-ELISA binding score [1]: 1.37
- Internalized Fluorescence Fold-Over Palivizumab, HCC-78, 5 hrs, 10 nM [8]: 25.3 fold
- Internalized Fluorescence Fold-Over Palivizumab, HCC-78, 24 hrs, 10 nM [8]: 59.9 fold
- Internalized Fluorescence Fold-Over Palivizumab, NCI-H441, 5 hrs, 10 nM [8]: 2.4 fold
- Internalized Fluorescence Fold-Over Palivizumab, NCI-H441, 24 hrs, 10 nM [8]: 4 fold
